Test results published in US8440430, “Modified dicer polypeptide and methods of use thereof” (The Regents of the University of California).

T1: ΔDEAD human Dicer (lacks DExD/H-box domain, aa 1-604 deleted) (Homo sapiens, UniProt Q9UPY3 SEQ:1-1318)
T1 chain: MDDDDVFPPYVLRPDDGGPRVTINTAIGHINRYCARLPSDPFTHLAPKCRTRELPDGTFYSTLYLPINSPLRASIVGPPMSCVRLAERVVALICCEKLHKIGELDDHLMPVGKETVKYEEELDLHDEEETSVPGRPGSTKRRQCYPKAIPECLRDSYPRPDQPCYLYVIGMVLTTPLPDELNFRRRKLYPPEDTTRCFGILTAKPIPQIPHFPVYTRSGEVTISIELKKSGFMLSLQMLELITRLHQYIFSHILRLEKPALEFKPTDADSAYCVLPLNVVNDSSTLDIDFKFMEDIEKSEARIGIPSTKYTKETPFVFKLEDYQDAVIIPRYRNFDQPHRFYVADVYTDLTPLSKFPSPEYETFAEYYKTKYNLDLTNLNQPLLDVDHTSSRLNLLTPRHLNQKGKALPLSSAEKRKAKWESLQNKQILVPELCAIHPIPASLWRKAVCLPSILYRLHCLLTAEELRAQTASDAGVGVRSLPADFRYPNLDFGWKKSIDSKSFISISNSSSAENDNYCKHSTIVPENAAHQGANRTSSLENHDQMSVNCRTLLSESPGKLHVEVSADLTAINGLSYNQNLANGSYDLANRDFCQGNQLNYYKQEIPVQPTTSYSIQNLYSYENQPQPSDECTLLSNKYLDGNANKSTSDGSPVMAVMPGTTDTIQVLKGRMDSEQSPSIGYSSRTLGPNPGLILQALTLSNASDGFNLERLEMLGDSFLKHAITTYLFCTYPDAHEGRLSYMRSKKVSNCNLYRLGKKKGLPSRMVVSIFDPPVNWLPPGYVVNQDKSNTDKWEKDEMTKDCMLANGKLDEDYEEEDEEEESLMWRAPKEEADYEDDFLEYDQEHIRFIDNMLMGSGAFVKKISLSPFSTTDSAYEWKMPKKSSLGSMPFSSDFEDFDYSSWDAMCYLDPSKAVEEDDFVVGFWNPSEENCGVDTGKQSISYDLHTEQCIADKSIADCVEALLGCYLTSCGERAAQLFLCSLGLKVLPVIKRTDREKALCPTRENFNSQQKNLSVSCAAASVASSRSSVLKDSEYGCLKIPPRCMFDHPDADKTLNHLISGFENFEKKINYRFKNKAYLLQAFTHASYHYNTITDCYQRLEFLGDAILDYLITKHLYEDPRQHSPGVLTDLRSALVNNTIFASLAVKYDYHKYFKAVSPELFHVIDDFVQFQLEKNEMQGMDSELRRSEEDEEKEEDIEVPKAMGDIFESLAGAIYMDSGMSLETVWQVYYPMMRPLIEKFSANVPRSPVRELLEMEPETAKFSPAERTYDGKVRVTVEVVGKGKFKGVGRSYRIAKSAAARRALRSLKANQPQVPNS


Key:
[1] = biological target: ΔDUF human Dicer (lacks DUF283) (Homo sapiens, UniProt Q9UPY3 SEQ:1-1922, del630-709); test: filter; within three-fold of full-length; 5 mM EDTA; exact Kd only in figure; conditions: tags: N-terminal His6 removed by site-specific protease, baculovirus/Sf9
Protocol: (§1) After dried, the bound (on Protran) or free (on Nytran) RNAs were detected and quantified with Phosphoimager (GE Healthcare). Percentage of bound RNAs was calculated by 100 multiplied by the ratio of radioactivity (volumes) detected on the Protran membrane over the total input volumes (radioactivity). The bound RNAs (%) (Y-axle) were plotted against protein concentrations (X-axle). K_d was determined by global fitting to the equation of kobsd = (kmax ×[Dicer])(K_{1/2} + [Dicer])^-1, here $kobsd$ is the observed rate constant at a particular protein concentration, $kmax$ is the maximal rate constant with saturating protein, and K_{1/2} (or K_d) is the protein concentration that provides half the maximal rate. Curve fitting was conducted with KleidaGraph (Synery Software).
(§2) RNA. […] These values are similar to those measured previously (Provost et al, 2002; Vermeulen et al, 2005). […] The protein lacking both the DExD/H-box domain and the dsRBD (2DD) bound ~3-4 fold more weakly to either substrate relative to full-length Dicer (FIG. 3A-C). It is possible that this severely truncated protein is generally destabilized, or that the DExD/H-box domain plays a small but measurable role in substrate binding.

[2] = biological target: T1, ΔDEAD human Dicer (lacks DExD/H-box …); test: as above; conditions: tags: N-terminal His6 removed by site-specific protease, baculovirus/Sf9
Protocol: as §1, §2

[3] = label: 5'-32P on one strand, perfect duplex with 2-nt 3' overhangs on both ends

Binder	Kd relative to full-length Dicer (fold) [1, 3]	Kd relative to full-length Dicer (fold) [2, 3]	Kd relative to full-length Dicer (fold) ([1]; label: 5'-32P, hairpin)	Kd relative to full-length Dicer (fold) ([2]; label: 5'-32P, hairpin)
37ab duplex RNA (dsRNA) RNA 1: UGAGGUAGUAGGUUGUAUAGUUUGAAAGUUCACGAUU RNA 2: UCGUGAACUUUCAAACUAUACAACCUACUACCUCAUU	≤ 3 fold of full-length Kd (75 nM)	≤ 3 fold of full-length Kd (75 nM)		
pre-hlet-7 hairpin RNA (ssRNA) RNA: UGAGGUAGUAGGUUGUAUAGUUUUAGGGUCACACCCACCACUGGGAGAUAACUAUACAAUCUACUGUCUUACC			≤ 3 fold of full-length Kd (30 nM)	≤ 3 fold of full-length Kd (30 nM)
